Positions count from the first letter of the chain named. Several values for one entry are separate records, joined by “and”; a condition that tells them apart may be missing. Equal values may be shown once.
How the values were obtained:
human IL-23 [1] = target: T1, human IL-23 (human, UniProt P29460 23-328); assay: BIAcore (SPR), antibody amine-coupled to CM5 chip, IL-23 as analyte; second replicate determination
T1 construct: also called hIL-23
T1 sequence 1: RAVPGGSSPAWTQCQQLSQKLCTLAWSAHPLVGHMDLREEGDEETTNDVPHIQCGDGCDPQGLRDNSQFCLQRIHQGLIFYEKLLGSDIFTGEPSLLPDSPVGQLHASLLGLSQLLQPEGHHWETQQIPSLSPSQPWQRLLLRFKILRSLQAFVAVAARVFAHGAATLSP
T1 sequence 2: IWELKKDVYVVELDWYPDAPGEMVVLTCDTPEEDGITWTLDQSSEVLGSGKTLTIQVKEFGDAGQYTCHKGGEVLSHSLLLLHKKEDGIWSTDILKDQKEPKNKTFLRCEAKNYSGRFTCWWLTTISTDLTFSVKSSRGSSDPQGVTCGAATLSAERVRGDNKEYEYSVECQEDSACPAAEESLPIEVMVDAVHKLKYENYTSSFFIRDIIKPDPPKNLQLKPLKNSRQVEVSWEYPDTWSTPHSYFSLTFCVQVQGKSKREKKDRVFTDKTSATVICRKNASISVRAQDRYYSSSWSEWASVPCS
Procedure: (§1) BIAcore determinations are performed essentially as described at Example 4 of commonly assigned U.S. Patent Application Publication No. 2007/0048315. Briefly, ligands (anti-IL-23 mAbs) are immobilized on a BlAcore CM5 sensor chip using standard amine-coupling procedure. IL-23 is diluted in PBS to produce various concentrations. Kinetic constants for the various interactions are determined using BIAevaluation software 3.1. The Kd is determined using the calculated dissociation and association rate constants.
Table 4 provides the Kd values as determined by BlAcore, including replicate determinations.

human IL-23 [2] = target: T1, human IL-23; assay: BIAcore (SPR), antibody amine-coupled to CM5 chip, IL-23 as analyte; first replicate determination
Procedure: as §1

human IL-23 [3] = target: T1, human IL-23; assay: cell-based or functional assay
human IL-23 [4] = target: T1, human IL-23; assay: cell-based or functional assay; remark: listed apart in the source
human IL-23 [5] = target: T1, human IL-23; assay: cell-based or functional assay; remark: listed apart in the source
human IL-23 [6] = target: T1, human IL-23; assay: BIAcore (SPR), antibody amine-coupled to CM5 chip, IL-23 as analyte
Procedure: as §1

human IL-23 [7] = target: T1, human IL-23; assay: BIAcore (SPR), essentially as in Example 4
Procedure: as §1

[8] = target: T2, non-linked (native) human IL-23 comprising two disulfide-linked chains, human p19 and human p40 (human, UniProt P29460 23-328); assay: KinExA, antibody pre-incubated with native human IL-23 in solution; third replicate determination
T2 sequence 1: T1 sequence 1
T2 sequence 2: T1 sequence 2
Procedure: (§2) The equilibrium dissociation constant (Kd) for anti human IL-23 antibodies is determined using the KinExA 3000 instrument. Sapidyne Instruments Inc., Boise Id., USA. KinExA uses the principle of the Kinetic Exclusion Assay method based on measuring the concentration of uncomplexed antibody in a mixture of antibody, antigen and antibody-antigen complex. The concentration of free antibody is measured by exposing the mixture to a solid-phase immobilized antigen for a very brief period of time. In practice, this is accomplished by flowing the solution phase antigen-antibody mixture past antigen-coated particles trapped in a flow cell. Data generated by the instrument are analyzed using custom software. Equilibrium constants are calculated using a mathematical theory based on the following assumptions: […]
(§3) Binding of anti-IL-23p19 antibodies is assessed in a competition binding assay, in which antibodies are pre-incubated with non-linked (native) human IL-23 comprising two disulfide-linked chains, human p19 (SEQ ID NO: 47) and human p40 (GenBank Accession No. P29460), at a series of concentrations. […] The amount of antibody captured by the PMMA particles is then detected using a fluorescently labeled secondary antibody.

[9] = target: T2, non-linked (native) human IL-23 …; assay: KinExA, antibody pre-incubated with native human IL-23 in solution; first replicate determination (64 ± 40)
Procedure: as §2, §3

human IL-23 [10] = target: T1, human IL-23; assay: BIAcore (SPR), antibody amine-coupled to CM5 chip, IL-23 as analyte; second determination, upper end of range 68-100
Procedure: as §1

[11] = target: T2, non-linked (native) human IL-23 …; assay: KinExA, antibody pre-incubated with native human IL-23 in solution; second replicate determination
Procedure: as §2, §3

human IL-23 [12] = target: T1, human IL-23; assay: BIAcore (SPR), antibody amine-coupled to CM5 chip, IL-23 as analyte; second determination, lower end of range 68-100
Procedure: as §1

human IL-23 [13] = target: T1, human IL-23; assay: BIAcore (SPR), antibody amine-coupled to CM5 chip, IL-23 as analyte; third determination, upper end of range 81-129
Procedure: as §1

human IL-23 [14] = target: T1, human IL-23; assay: BIAcore (SPR), antibody amine-coupled to CM5 chip, IL-23 as analyte; first determination, lower end of range 72-104
Procedure: as §1

human IL-23 [15] = target: T1, human IL-23; assay: BIAcore (SPR), antibody amine-coupled to CM5 chip, IL-23 as analyte; first determination, upper end of range 72-104
Procedure: as §1

human IL-23 [16] = target: T1, human IL-23; assay: BIAcore (SPR), antibody amine-coupled to CM5 chip, IL-23 as analyte; third determination, lower end of range 81-129
Procedure: as §1

[17] = target: T2, non-linked (native) human IL-23 …; assay: KinExA, antibody pre-incubated with native human IL-23 in solution; fourth replicate determination
Procedure: as §2, §3

B1: murine antibody 13B8 (mouse IgG1/kappa) (antibody, V domains shown)
VH: HVQLQQSGPELVRPGASVELSCKASGYIFITYWMTWMKQRPGQGLEWIGQIFPASGSADYNEMFEGKATLTVDTSSNTAYMQLSSLTSEDSAVYFCARGGGGFAYWGQGTLVTVSA
VL: DIQMTQSPASLSASVGETVTITCRTSENIYSYLAWYQQKQGKSPQLLVYNAKTLAEGVPSRFSGSGSGTQFSLKINRLQPEDFGRYFCQHHYGIPFTFGSGTKLEIKR
notes: also called m13B8; mouse 13B8
- Kd (human IL-23 [1]): 0.228 nM
- Kd (human IL-23 [2]): 0.173 nM
- Splenocyte assay IC50 (IL-17 production by mouse splenocytes) (human IL-23 [3]): 0.064 nM and 0.028 nM and 0.054 nM
- IC50 for blocking of Ba/F3 cell proliferation (human IL-23 [4]): 0.7 nM

B2: humanized anti-IL-23p19 antibody 13B8-b (antibody, human IgG1, kappa, V domains shown)
VH: QVQLVQSGAEVKKPGASVKVSCKASGYIFITYWMTWVRQAPGQGLEWMGQIFPASGSADYNEKFEGRVTMTTDTSTSTAYMELRSLRSDDTAVYYCARGGGGFAYWGQGTLVTVSS
VL: DIQMTQSPSSLSASVGDRVTITCRTSENIYSYLAWYQQKPGKAPKLLIYNAKTLAEGVPSRFSGSGSGTDFTLTISSLQPEDFATYYCQHHYGIPFTFGQGTKVEIKR
notes: also called hum13B8-b; Hum 13B8-b
- Splenocyte assay IC50 (IL-17 production by mouse splenocytes) (human IL-23 [3]): 0.11 nM and 0.221 nM
- IC50 in the Ba/F3 proliferation assay (340 pM IL-23) (human IL-23 [5]): 187 pM
- IC50 in the KIT225 STAT-3 phosphorylation assay (138 pM human IL-23) (human IL-23 [5]): 130 pM
- IC50 in the human splenocyte assay (IFN-γ production, 170 pM human IL-23) (human IL-23 [5]): 0.059 to 0.144 nM
- IC50 for blocking of Ba/F3 cell proliferation (human IL-23 [4]): 1.2 nM and 1.1 nM
- Kd (human IL-23 [6]): 0.077 nM and 0.129 nM and 0.069 nM and 0.116 nM
- Kd (human IL-23 [7]): 0.297 nM

B3: humanized anti-IL-23p19 antibody 13B8-a (antibody, human IgG1, kappa, V domains shown)
VH: B2 VH with K63M
VL: B2 VL
notes: also called hum13B8-a; h13B8-a
- Kd [8]: 0.365 nM
- Kd [9]: 0.064 nM
- Kd (human IL-23 [10]): ≤ 0.1 nM
- Kd [11]: 0.11 nM
- Kd (human IL-23 [12]): ≥ 0.068 nM
- Kd (human IL-23 [13]): ≤ 0.129 nM
- Kd (human IL-23 [14]): ≥ 0.072 nM
- IC50 for blocking of Ba/F3 cell proliferation (human IL-23 [4]): 1.1 nM
- Kd (human IL-23 [15]): ≤ 0.104 nM
- Kd (human IL-23 [16]): ≥ 0.081 nM
- Kd [17]: 0.447 nM

B4: humanized anti-IL-23p19 antibody 13B8-c (antibody, human IgG1, kappa, V domains shown)
VH: B2 VH with N61A, E62Q, F64L, E65Q
VL: B2 VL
notes: also called hum13B8-c; h13B8-c
- Splenocyte assay IC50 (IL-17 production by mouse splenocytes) (human IL-23 [3]): 0.515 nM
- IC50 for blocking of Ba/F3 cell proliferation (human IL-23 [4]): 1.1 nM and 2.2 nM
- Kd (human IL-23 [6]): 0.092 to 0.153 nM

Reference: patent US20100272731A1 (SCHERING, published 2010)
